In article PMC5352466 (Bioconjugate chemistry, 2017):

Experiment: Pharmacokinetics study in mice after tail vein injection
Type: in vivo
Conditions: fasted CD1 mice, i.v. tail vein, 16 Qg/kg of insulin, 3-60 min, ELISA, n = 5

## insulin
  plasma concentration of insulin after injection: not detectable at any time point
